Assay results published in patent US20210347908A1 (ELPISCIENCE SUZHOU BIOPHARMA, published 2021).
Values belong to the binder of their own block, whether it stands above or below them.

Columns and labels:
[1] = biological target: T1, full length cyno SIRPα stably expressed on CHOK1 cells (cynomolgus monkey, UniProt A0A2K5VYQ9 31-507); experiment: FACS on CHOK1 cells
T1 construct: whole, on cells; also called CHOK1-cyno SIRPα-2A2 cells; CHOK1-cyno SIRPα
T1 sequence: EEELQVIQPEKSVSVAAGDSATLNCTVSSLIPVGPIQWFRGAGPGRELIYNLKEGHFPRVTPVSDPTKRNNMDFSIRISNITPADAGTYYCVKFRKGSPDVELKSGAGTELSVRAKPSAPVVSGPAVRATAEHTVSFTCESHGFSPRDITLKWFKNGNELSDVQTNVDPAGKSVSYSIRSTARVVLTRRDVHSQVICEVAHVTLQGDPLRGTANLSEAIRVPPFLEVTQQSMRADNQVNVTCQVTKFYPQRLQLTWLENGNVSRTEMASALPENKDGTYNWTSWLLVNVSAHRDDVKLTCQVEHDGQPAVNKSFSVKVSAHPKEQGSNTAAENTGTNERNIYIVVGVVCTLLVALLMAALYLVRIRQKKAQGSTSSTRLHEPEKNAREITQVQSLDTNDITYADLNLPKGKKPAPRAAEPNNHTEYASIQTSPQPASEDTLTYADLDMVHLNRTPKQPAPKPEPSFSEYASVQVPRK

[2] = biological target: T2, full length C57BL/6 mouse SIRPα stably expressed on CHOK1 cells (mouse (C57BL/6), UniProt P97797 32-513); experiment: FACS on CHOK1 cells
T2 construct: whole, on cells; also called CHOK1-C57BL/6 mouse SIRPα-2.22 cells
T2 sequence (looked up): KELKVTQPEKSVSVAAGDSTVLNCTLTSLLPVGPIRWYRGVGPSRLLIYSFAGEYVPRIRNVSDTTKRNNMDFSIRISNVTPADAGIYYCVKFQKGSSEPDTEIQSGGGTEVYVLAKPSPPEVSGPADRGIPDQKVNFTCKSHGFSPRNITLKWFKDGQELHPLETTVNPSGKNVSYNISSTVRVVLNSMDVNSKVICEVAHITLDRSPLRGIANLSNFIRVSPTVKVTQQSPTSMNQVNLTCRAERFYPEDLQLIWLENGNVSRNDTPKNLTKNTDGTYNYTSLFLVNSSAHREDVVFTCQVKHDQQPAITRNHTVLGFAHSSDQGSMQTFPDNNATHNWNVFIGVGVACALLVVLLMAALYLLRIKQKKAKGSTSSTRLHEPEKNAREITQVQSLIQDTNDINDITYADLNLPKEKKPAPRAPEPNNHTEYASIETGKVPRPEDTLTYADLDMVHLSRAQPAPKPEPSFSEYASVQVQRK

[3] = biological target: T3, biotin labeled soluble human SIRPα v1 ECD recombinant protein (human, UniProt P78324 31-373, biotin labeled); experiment: competitive ELISA; competitor 002
T3 construct: extracellular domain
Description: (§1) Competitive ELISA assay was used for epitope binning of 9 functional antibodies. Briefly excessive competitor antibody and biotin labeled soluble human SIRPα v1 ECD recombinant protein were co-incubated with ELISA microplate coated antibody. After washing, HRP-SA was added and incubated at 37° C. for 1 hour. Then, […] of TMB solution (Biotechnology) was added. After incubation for 15 minutes at room temperature, the reaction was stopped by the addition of […] of 1N HCl. OD 450 nm was read. Competition ratio was calculated. The antibodies that can compete each other for binding to SIRPα have the similar binding epitope.

[4] = biological target: T3, biotin labeled soluble human SIRPα v1 …; experiment: competitive ELISA; competitor 032
Description: as §1

[5] = biological target: T3, biotin labeled soluble human SIRPα v1 …; experiment: competitive ELISA; competitor 050
Description: as §1

[6] = biological target: T3, biotin labeled soluble human SIRPα v1 …; experiment: competitive ELISA; competitor 055
Description: as §1

[7] = biological target: T3, biotin labeled soluble human SIRPα v1 …; experiment: competitive ELISA; competitor 060
Description: as §1

[8] = biological target: T3, biotin labeled soluble human SIRPα v1 …; experiment: competitive ELISA; competitor KWAR23
Description: as §1

B1: Antibody 001 (hybridoma antibody) (antibody, V domains shown)
VH: EVKLEESGGGLVQPGGSMKLSCVASGFTFRNYWMNWVRQSPERGLEWIAEISLKSNTYATHYAESVKGRFAISRDGSKSSFYLQMNDLRAEDTGIYYCTTFTKVVADWHLDVWGAGTTVTVSS
VL: DVLMTQTPLSLPVSLGDQASISCRSSQNIVHSNGNTYLEWYLQKPGQSPKLLIYKVSNRFSGVPDRFSGSGSGTDFTLRISRVEAEDLGVYYCFQGSHVPFTFGSGTKLEIK
notes: mouse hybridoma antibody
MFI at 10 nM [1]: 8030 MFI
binding result [2]: no binding (tested: 100 nM)
% Competition [3]: 95%
% Competition [4]: 96%
% Competition [5]: 5%
% Competition [6]: 4%
% Competition [7]: 19%
% Competition [8]: 83%

B2: Antibody 032 (hybridoma antibody) (antibody, V domains shown)
VH: EVRLEESGGGLVQPGGSMKLSCVVSGFTFRNYWMNWVRQSPERGLEWIAEITLKSNTYATHYAESVKGRFAISRDDSKSSFYLQMNDLRPEDTGIYYCTTFTKVVADWHLDVWGAGTTVTVSS
VL: DVLMTQTPLSLPVNLGDQASISCRSSQNIVHSNGNTYLEWYLQKPGQSPKLLIYKVSNRFSGVPDRFSGSGSGTDFTLRISRVEAEDLGVYYCFQGSHVPFTFGSGTKLEIK
notes: mouse hybridoma antibody
MFI at 10 nM [1]: 6860 MFI
binding result [2]: no binding (tested: 100 nM)
% Competition [3]: 93%
% Competition [4]: 94%
% Competition [5]: 4%
% Competition [6]: 3%
% Competition [7]: 7%
% Competition [8]: 69%

B3: Antibody 002 (hybridoma antibody) (antibody, V domains shown)
VH: EVKLEESGGGLVQPGGSMILSCVASGFTFRNYWMNWVRQSPERGLEWIAEITLKSNTYATHYAESVKGRFAISRDDSKSSFYLQMNDLRPEDTGIYYCTTFTKVVADWHLDVWGAGTTVTVSS
VL: DVLMTQTPLSLPVSLGDQASISCRSSQNIVHSNGNTYLEWYLQKPGQSPKLLIYKISNRFSGVPDRFSGSGSGTDFTLRISRVEAEDLGVYYCFQGSHVPFTFGSGTKLEIQ
notes: mouse hybridoma antibody
MFI at 10 nM [1]: 7540 MFI
binding result [2]: no binding (tested: 100 nM)
% Competition [3]: 90%
% Competition [4]: 92%
% Competition [5]: -13%
% Competition [6]: -16%
% Competition [7]: -10%
% Competition [8]: 71%

B5: Antibody 022 (hybridoma antibody) (antibody, V domains shown)
VH: QIQLVQSGPELKKPGETVKISCKASGYTFTDYAMHWVKQAPGKGLKWMGWKNTETGESTYAEDFKGRFAFFLETSASTAYLQINNVKNEDTATYFCARGGYGSNYVMDYWGQGTSVIVSS
VL: DIQMTQSSSSFSVSLGDRVTITCKASEDIYNRLAWYQQKPGNAPRLLISGATSLETGVPSRFSGSGSGKDYTLSITSLQTEDVATYYCQQYWNSPRTFGGGTKLEIK
notes: mouse hybridoma antibody
MFI at 10 nM [1]: 6430 MFI
binding result [2]: no binding (tested: 100 nM)
% Competition [3]: 6%
% Competition [4]: 4%
% Competition [5]: 79%
% Competition [6]: 1%
% Competition [7]: 26%
% Competition [8]: 1%

B7: Antibody 050 (hybridoma antibody) (antibody, V domains shown)
VH: QIQLVQSGPELKKPGETVKISCKASGYTFTHYSMHWVKQAPGKGLKWMGWINTETAEPTYVDDFKGRFAFSLEASASTAFFQINNLKNEDTATYFCARGGLRQGDYWGQGTTLTVSS
VL: QIVLTQSPPIMSASPGEKVTLTCSATSSVSASYLYWFQQKPGSSPKLWIYSTSNLASGVPARFSGSGSGTSYSLTISNMEPADAASYFCHQWSSYPYTFGGGTKLEIK
notes: mouse hybridoma antibody
MFI at 10 nM [1]: 13600 MFI
binding result [2]: no binding (tested: 100 nM)
% Competition [3]: 3%
% Competition [4]: 8%
% Competition [5]: 83%
% Competition [6]: -16%
% Competition [7]: 17%
% Competition [8]: 0%

B8: Antibody 035 (hybridoma antibody) (antibody, V domains shown)
VH: QIQLVQSGPELRKPGETVKISCKASGYSFTNYAMNWVKQAPGKVLKWMGFINTYTGEPTYADDFKGRFAFSLETSASTAYLQINNLKNEDTATYFCTRTRGYYDFDGGAFDYWGQGTSLTVSS
VL: DIVMTQSQKFMSTSIGDRVSVTCKASQNVGTHLAWYQQKPGQSPKALIFSASYRYIGVPDRFTGSGSGTDFTLTITNVQSEDLAEYFCQQYNTYPLTFGAGTKLELK
notes: mouse hybridoma antibody
MFI at 10 nM [1]: 8310 MFI
% Competition [3]: 86%
% Competition [4]: 89%
% Competition [5]: -3%
% Competition [6]: -1%
% Competition [7]: -1%
% Competition [8]: -6%

B10: Antibody 074 (hybridoma antibody) (antibody, V domains shown)
VH: QVQLQQPRAELVKPGASVMLSCKASGYTFSSYWIHWVRQGPGQGLEWIGLIHPNSGNTDCSETFKNKATLTVDTSSSTAYMQLSSLASEDSAVYYCARDGASYDWFVHWGQGTLVTVSA
VL: not shown
notes: mouse hybridoma antibody
MFI at 10 nM [1]: 14300 MFI
binding result [2]: no binding (tested: 100 nM)
% Competition [3]: 14%
% Competition [4]: 34%
% Competition [5]: 7%
% Competition [6]: -17%
% Competition [7]: -1%
% Competition [8]: -14%

More lines, now with the values ahead:

binding result [1]: no binding (tested: 10 nM)
binding result [2]: no binding (tested: 100 nM)
% Competition [3]: 1%
% Competition [4]: 4%
% Competition [5]: 14%
% Competition [6]: 7%
% Competition [7]: 93%
% Competition [8]: -4%
B4: Antibody 060 (hybridoma antibody) (antibody, V domains shown)
VH: QVQLKESGPGLVAPSESLSITCTVSGFSLTNYDISWIRQSPGKGLEWLGVIWTGGDTNFNSAFMSRLSISKDKSKSQVFLKLNSLQTDDTAIYYCVRVQYFGGSYGPMDYWGQGISVTVSS
VL: DIQMTQASSYLSVSLGGRVTITCEASDHINDWLAWYQQTPGNAPRLLISGATSLETGVPSRFSGSGSGKDYTLSITSLQTEDIATYYCQQYWNTPLTFGAGTRLELK
notes: mouse hybridoma antibody

% Competition [3]: 49%
% Competition [4]: 82%
% Competition [5]: 5%
% Competition [6]: 1%
% Competition [7]: 5%
% Competition [8]: 95%
B6: reference antibody KWAR23 (antibody, V domains shown)
VH: EVQLQQSGAELVKPGASVKLSCTASGFNIKDYYIHWVQQRTEQGLEWIGRIDPEDGETKYAPKFQDKATITADTSSNTAYLHLSSLTSEDTAVYYCARWGAYWGQGTLVTVSS
VL: QIVLTQSPAIMSASPGEKVTLTCSASSSVSSSYLYWYQQKPGSSPKLWIYSTSNLASGVPARFSGSGSGTSYSLTISSMEAEDAASYFCHQWSSYPRTFGAGTKLELK

binding result [1]: no binding (tested: 10 nM)
% Competition [3]: 81%
% Competition [4]: 91%
% Competition [5]: 4%
% Competition [6]: 1%
% Competition [7]: 7%
% Competition [8]: 94%
B9: reference antibody HEFLB (antibody, V domains shown)
VH: EVQLVQSGAEVKKPGESLRISCKASGYSFTSYWVHWVRQMPGKGLEWMGNIDPSDSDTHYSPSFQGHVTLSVDKSISTAYLQLSSLKASDTAMYYCVRGGTGTLAYFAYWGQGTLVTVSS
VL: DVVMTQSPLSLPVTLGQPASISCRSSQSLVHSYGNTYLYWFQQRPGQSPRLLIYRVSNRFSGVPDRFSGSGSGTDFTLKISRVEAEDVGVYYCFQGTHVPYTFGGGTKVEIK
